Measurements as given in article PMC3903776, “Structural Characterization of the Mechanosensitive Channel Candidate MCA2 from Arabidopsis thaliana” (PLoS ONE, 2014).

Target: the molecule itself
Experiment: cross-linking; purified MCA2-6H in PBS with 4% APFO; 10 mM glutaraldehyde, room temperature, up to 30 min, stopped with 50 mM Tris-HCl pH 8.0; reducing SDS-PAGE, CBB staining

B1: MCA2-6H (Arabidopsis thaliana MCA2 with a 6xHis tag fused to the carboxyl terminus) (natural protein, UniProt Q3EBY6 1-416, looked up)
chain: MANSWDQLGEIASVAQLTGIDALKLIGMIVNAANTARMHKKNCRQFAHHLKLIRNLLEQIKNSEMNQRSEILEPLQGLDDALRRSYILVKSCQEKSYLYLLAMGWNIVNQFEKAQNEIDLFLKIVPLINMADNARIRERLEAIERDQREYTLDEEDRKVQDVILKQESTREAATSVLKKTLSRSYPNMGFCEALKTEEEKLQLELQRSRARYDADQCEVIQRLIDVTQTAATVEPNLEKVLTKKEELTSSKKRDDLYDTDSSSIRADSRSTSYVSSGHELLSGRSLQHRGNWHADLLDCCSEPCLCLKTLFFPCGTLAKISTVATSRQISSTEVCKNLIVYSLILSCCCYTCCIRKKLRKTLNITGGCIDDFLSHLMCCCCALVQELREVEIHRASYGTEKSNKEMSPPTPQFMEE
notes: MCA2 of Arabidopsis thaliana, 416 amino acid residues; source: Sf9 cells, baculovirus (Bac-to-Bac), membrane fraction solubilised in APFO, purified (His GraviTrap, Superdex 200 SEC); not shown: 6xHis, C-terminal, kept
stoichiometry N: 4
